Source: US20260234232A1 (QUAERITE BIOPHARM RESEARCH BEIJING, published 2026)

molecular target: T1, human VEGFA165 (human, UniProt P15692-4 27-191); experiment: ELISA, coated human VEGFA165, anti-His detection
T1 construct: Bought protein from two suppliers, treated as one molecule; the supplier is named under assay; also called antigen VEGFA
Method: (§1) Antigen human VEGFA165 (label-free, purchased from Sino Biological, Cat. No.: HPLC-10008-HNAH, hereinafter referred to as VEGFA) was diluted with ELISA coating buffer to a final concentration of 0.3 μg/mL and added to a microplate at 100 μL/well for coating at 4° C. overnight. […] The solution used for antibody dilution was PBS containing 0.1% Tween-20 (pH 7.4), i.e., PBST. After being incubated at 37° C. for 1 h, the microplate was washed 3 times with PBST, and a dilution of His-Tag murine monoclonal antibody (purchased from Proteintech, Cat. No.: 66005-1-Ig) was added. The plate was further incubated at 37° C. for 1 h and washed again. Subsequently, a dilution of HRP-labeled goat anti-mouse IgG antibody (HRP-conjugated Affinipure Goat Anti-Mouse IgG (H+L), purchased from Proteintech, Cat. No.: SA00001-1) was added, and the plate was incubated at room temperature for 45 min. After the plate was washed, 100 μL of TMB (purchased from Tiangen Biotech, Cat. No.: PA107-01) was added to each well for color development at 37° C. for 15 min, followed by the addition of 50 μL of stopping solution. The absorbance at 450 nm (OD450) was measured using a microplate reader.
The purified bivalent humanized nanobodies were evaluated for their VEGFA binding activity, and the experimental procedure was the same as that described in “2.

T1 sequence (P15692 other isoform, or with tags, fused parts or gaps limits assumed): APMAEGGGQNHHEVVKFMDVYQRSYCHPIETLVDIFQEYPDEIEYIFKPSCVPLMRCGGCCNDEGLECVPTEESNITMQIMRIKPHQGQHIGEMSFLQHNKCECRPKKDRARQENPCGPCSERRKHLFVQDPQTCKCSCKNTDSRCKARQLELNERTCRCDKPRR

EC50 [nM] | Binder
0.27 | 2V1-DP-3GS (VHH, Tandem bivalent humanized nanobody) EVQLVESGGGLVQPGGSLRLSCAVSGRTFSSYTMGWFRQAPGKEREFVVAISKGGYKYDSVSLEARFTISRDNSKNTVYLQMNSLRPEDTAVYYCAATRAYGSSRLRLADTYEYWGQGTLVTVSSGGSEVQLVESGGGLVQPGGSLRLSCAVSGRTFSSYTMGWFRQAPGKEREFVVAISKGGYKYDSVSLEARFTISRDNSKNTVYLQMNSLRPEDTAVYYCAATRAYGSSRLRLADTYEYWGQGTLVTVSS
0.26 | 2V1-SA1-3GS (VHH, Tandem bivalent humanized nanobody) EVQLVESGGGLVQPGGSLRLSCAVSGRTFSSYTMGWFRQAPGKEREFVVAISKGGYKYDSVSLEARFTISRDNAKNTVYLQMNSLRPEDTAVYYCAATRAYGSSRLRLADTYEYWGQGTLVTVSSGGSEVQLVESGGGLVQPGGSLRLSCAVSGRTFSSYTMGWFRQAPGKEREFVVAISKGGYKYDSVSLEARFTISRDNAKNTVYLQMNSLRPEDTAVYYCAATRAYGSSRLRLADTYEYWGQGTLVTVSS
1.19 | 2V43-1H-2m-3GS (VHH, Tandem bivalent humanized nanobody) EVQLVESGGGLVQPGGSLRLSCAASGRTFSSYTMGWFRQAPGKEREFVVAISKGGYKYDSVSLEARFTISRDNSKNTVYLQMNSLRPEDTAVYYCAATRAYGSSRLRLANTYEYWGQGTLVTVSSGGSEVQLVESGGGLVQPGGSLRLSCAASGRTFSSYTMGWFRQAPGKEREFVVAISKGGYKYDSVSLEARFTISRDNSKNTVYLQMNSLRPEDTAVYYCAATRAYGSSRLRLANTYEYWGQGTLVTVSS
0.24 | 2V15-4m-3GS (VHH, Tandem bivalent humanized nanobody) EVQLVESGGGLVQPGGSLRLSCAASGRTFASYTMGWFRQAPGKEREFVVAISKGGYKYDSVSLEARFTISRDNAKNTVYLQMNSLRPEDTAVYYCAGTRAYGSSRLRLAETYEYWGQGTLVTVSSGGSEVQLVESGGGLVQPGGSLRLSCAASGRTFASYTMGWFRQAPGKEREFVVAISKGGYKYDSVSLEARFTISRDNAKNTVYLQMNSLRPEDTAVYYCAGTRAYGSSRLRLAETYEYWGQGTLVTVSS
0.94 | 2V30-2H-2m-3GS (VHH, Tandem bivalent humanized nanobody) EVQLVESGGGLVQPGGSLRLSCAASGRTFSSYTMGWFRQAPGKEREFVVAISKGGYKYDAVSLEARFTISRDNSKNTVYLQMNSLRPEDTAVYYCAATRAYGSSRLRLAKTYEYWGQGTLVTVSSGGSEVQLVESGGGLVQPGGSLRLSCAASGRTFSSYTMGWFRQAPGKEREFVVAISKGGYKYDAVSLEARFTISRDNSKNTVYLQMNSLRPEDTAVYYCAATRAYGSSRLRLAKTYEYWGQGTLVTVSS
0.81 | 2V30-2H-2m-NL (VHH, Tandem bivalent humanized nanobody) EVQLVESGGGLVQPGGSLRLSCAASGRTFSSYTMGWFRQAPGKEREFVVAISKGGYKYDAVSLEARFTISRDNSKNTVYLQMNSLRPEDTAVYYCAATRAYGSSRLRLAKTYEYWGQGTLVTVSSEVQLVESGGGLVQPGGSLRLSCAASGRTFSSYTMGWFRQAPGKEREFVVAISKGGYKYDAVSLEARFTISRDNSKNTVYLQMNSLRPEDTAVYYCAATRAYGSSRLRLAKTYEYWGQGTLVTVSS
0.19 | 2V15-4m-NL (VHH, Tandem bivalent humanized nanobody) EVQLVESGGGLVQPGGSLRLSCAASGRTFASYTMGWFRQAPGKEREFVVAISKGGYKYDSVSLEARFTISRDNAKNTVYLQMNSLRPEDTAVYYCAGTRAYGSSRLRLAETYEYWGQGTLVTVSSEVQLVESGGGLVQPGGSLRLSCAASGRTFASYTMGWFRQAPGKEREFVVAISKGGYKYDSVSLEARFTISRDNAKNTVYLQMNSLRPEDTAVYYCAGTRAYGSSRLRLAETYEYWGQGTLVTVSS
0.28 | 2V1-SA1-NL (VHH, Tandem bivalent humanized nanobody) EVQLVESGGGLVQPGGSLRLSCAVSGRTFSSYTMGWFRQAPGKEREFVVAISKGGYKYDSVSLEARFTISRDNAKNTVYLQMNSLRPEDTAVYYCAATRAYGSSRLRLADTYEYWGQGTLVTVSSEVQLVESGGGLVQPGGSLRLSCAVSGRTFSSYTMGWFRQAPGKEREFVVAISKGGYKYDSVSLEARFTISRDNAKNTVYLQMNSLRPEDTAVYYCAATRAYGSSRLRLADTYEYWGQGTLVTVSS
0.22 | 2V13-4m-NL (VHH, Tandem bivalent humanized nanobody) EVQLVESGGGLVQPGGSLRLSCAASGRTFTSYTMGWFRQAPGKEREFVVAISKGGYKYDAVSLEARFTISRDNAKNTVYLQMNSLRPEDTAVYYCAGTRAYGSSRLRLADTYEYWGQGTLVTVSSEVQLVESGGGLVQPGGSLRLSCAASGRTFTSYTMGWFRQAPGKEREFVVAISKGGYKYDAVSLEARFTISRDNAKNTVYLQMNSLRPEDTAVYYCAGTRAYGSSRLRLADTYEYWGQGTLVTVSS
0.26 | 2V40-3H-2m-NL (VHH, Tandem bivalent humanized nanobody) EVQLVESGGGLVQPGGSLRLSCAASGRTFSSYTMGWFRQAPGKEREFVVAISKGGYKYNAVSLEARFTISRDNSKNTVYLQMNSLRPEDTAVYYCAATRAYGSSRLRLAKTYEYWGQGTLVTVSSEVQLVESGGGLVQPGGSLRLSCAASGRTFSSYTMGWFRQAPGKEREFVVAISKGGYKYNAVSLEARFTISRDNSKNTVYLQMNSLRPEDTAVYYCAATRAYGSSRLRLAKTYEYWGQGTLVTVSS
0.2 | 2V1-DP-NL (VHH, Tandem bivalent humanized nanobody) EVQLVESGGGLVQPGGSLRLSCAVSGRTFSSYTMGWFRQAPGKEREFVVAISKGGYKYDSVSLEARFTISRDNSKNTVYLQMNSLRPEDTAVYYCAATRAYGSSRLRLADTYEYWGQGTLVTVSSEVQLVESGGGLVQPGGSLRLSCAVSGRTFSSYTMGWFRQAPGKEREFVVAISKGGYKYDSVSLEARFTISRDNSKNTVYLQMNSLRPEDTAVYYCAATRAYGSSRLRLADTYEYWGQGTLVTVSS

molecular target: T1, human VEGFA165; experiment: SPR Biacore 8K, VEGFA165 on CM5, nanobody analyte, 1:1 fit
Method: Using the Biacore 8K instrument (Cytiva), the antigen VEGFA165 (label-free, purchased from Sino Biological, Cat. No.: HPLC-10008-HNAH) as the ligand was coupled onto a CM5 chip through amino-coupling reagents (EDC and NHS), with the coupling level being about 400 RU. The mobile phase buffer was HBS-EP (0.01 M HEPES pH 7.4, 0.15 M NaCl, 3 mM EDTA, 0.005% v/v Tween 20) during the experiment. […] In the kinetic analysis, the binding time between the antigen and the antibody was 240 s, the dissociation time was 1500 s, and the flow rate was 30 μL/min. In a multi-cycle mode, the chip was regenerated with 100 mM hydrochloric acid.

Kd [nM] | koff [s⁻¹] | kon [M⁻¹ s⁻¹] | Binder
0.653 | 0.000154 | 236000 | V29 (VHH, Monovalent nanobody; tag not described here) VHH: QLQLVESGGGSVQPGGSLRLSCEVSGRTFSSYTMGWFRQAPGKEREFVVAISKGGYKYDSVSLEARFTISKDNTKNTVYLQMNSLKPEDTAVYYCAGTRAYGSSRLRLANTYEYWGQGTQVTVSS
0.719 | 0.000233 | 324000 | V33 (VHH, Monovalent nanobody; tag not described here) VHH: QLQLVESGGGSVQPGGSLRLSCEVSGRTFSSYTMGWFRQAPGKEREFVVAISKGGYKYDSVSLEARFTISKDNTKNTVYLQMNSLKPEDTAVYYCAATRAYGSSRLRLAKTYEYWGQGTQVTVSS

molecular target: T1, human VEGFA165; experiment: competitive ELISA, coated VEGFA, competitor VEGFR2-ECD-Fc 1 nM

IC50 [nM] | Maximum inhibition rate (%) | Binder
1.74 | 94.5 | 2V15-39GS (VHH, Tandem bivalent nanobody) QLQLVESGGGSVQPGGSLRLSCEVSGRTFASYTMGWFRQAPGKEREFVVAISKGGYKYDSVSLEARFTISKDNTKNTVYLQMNSLKPEDTAVYYCAGTRAYGSSRLRLAETYEYWGQGTQVTVSSGGGGSGGGSGGGGSGGGGSGGGGSGGGGSGGGGSGGGGSQLQLVESGGGSVQPGGSLRLSCEVSGRTFASYTMGWFRQAPGKEREFVVAISKGGYKYDSVSLEARFTISKDNTKNTVYLQMNSLKPEDTAVYYCAGTRAYGSSRLRLAETYEYWGQGTQVTVSS
1.6 | 94.1 | 2V15-30GS (VHH, Tandem bivalent nanobody) QLQLVESGGGSVQPGGSLRLSCEVSGRTFASYTMGWFRQAPGKEREFVVAISKGGYKYDSVSLEARFTISKDNTKNTVYLQMNSLKPEDTAVYYCAGTRAYGSSRLRLAETYEYWGQGTQVTVSSGGGGSGGGSGGGGSGGGSGGGSGGGSGGGSQLQLVESGGGSVQPGGSLRLSCEVSGRTFASYTMGWFRQAPGKEREFVVAISKGGYKYDSVSLEARFTISKDNTKNTVYLQMNSLKPEDTAVYYCAGTRAYGSSRLRLAETYEYWGQGTQVTVSS
1.66 | 94.5 | 2V15-25GS (VHH, Tandem bivalent nanobody) QLQLVESGGGSVQPGGSLRLSCEVSGRTFASYTMGWFRQAPGKEREFVVAISKGGYKYDSVSLEARFTISKDNTKNTVYLQMNSLKPEDTAVYYCAGTRAYGSSRLRLAETYEYWGQGTQVTVSSGGGGSGGGSGGGSGGGSGGGSGGGSQLQLVESGGGSVQPGGSLRLSCEVSGRTFASYTMGWFRQAPGKEREFVVAISKGGYKYDSVSLEARFTISKDNTKNTVYLQMNSLKPEDTAVYYCAGTRAYGSSRLRLAETYEYWGQGTQVTVSS

molecular target: T1, human VEGFA165; experiment: ELISA, coated human VEGFA165, anti-His detection; remark: another data set of the same source
Method: as §1

EC50 [nM] | Binder
0.38 | 2V15-39GS (VHH, Tandem bivalent nanobody) QLQLVESGGGSVQPGGSLRLSCEVSGRTFASYTMGWFRQAPGKEREFVVAISKGGYKYDSVSLEARFTISKDNTKNTVYLQMNSLKPEDTAVYYCAGTRAYGSSRLRLAETYEYWGQGTQVTVSSGGGGSGGGSGGGGSGGGGSGGGGSGGGGSGGGGSGGGGSQLQLVESGGGSVQPGGSLRLSCEVSGRTFASYTMGWFRQAPGKEREFVVAISKGGYKYDSVSLEARFTISKDNTKNTVYLQMNSLKPEDTAVYYCAGTRAYGSSRLRLAETYEYWGQGTQVTVSS
0.27 | 2V15-30GS (VHH, Tandem bivalent nanobody) QLQLVESGGGSVQPGGSLRLSCEVSGRTFASYTMGWFRQAPGKEREFVVAISKGGYKYDSVSLEARFTISKDNTKNTVYLQMNSLKPEDTAVYYCAGTRAYGSSRLRLAETYEYWGQGTQVTVSSGGGGSGGGSGGGGSGGGSGGGSGGGSGGGSQLQLVESGGGSVQPGGSLRLSCEVSGRTFASYTMGWFRQAPGKEREFVVAISKGGYKYDSVSLEARFTISKDNTKNTVYLQMNSLKPEDTAVYYCAGTRAYGSSRLRLAETYEYWGQGTQVTVSS
0.24 | 2V15-25GS (VHH, Tandem bivalent nanobody) QLQLVESGGGSVQPGGSLRLSCEVSGRTFASYTMGWFRQAPGKEREFVVAISKGGYKYDSVSLEARFTISKDNTKNTVYLQMNSLKPEDTAVYYCAGTRAYGSSRLRLAETYEYWGQGTQVTVSSGGGGSGGGSGGGSGGGSGGGSGGGSQLQLVESGGGSVQPGGSLRLSCEVSGRTFASYTMGWFRQAPGKEREFVVAISKGGYKYDSVSLEARFTISKDNTKNTVYLQMNSLKPEDTAVYYCAGTRAYGSSRLRLAETYEYWGQGTQVTVSS
